Source: patent US11441131B2, “Heparosan synthases and use thereof for saccharide synthesis” (The Regents of the University of California, priority 2019, dated 2022)

How the values were obtained:
[1] = Isoelectric point (pI); type: physicochemical
[2] = Behaviour during dialysis; type: physicochemical
[3] = Protein expression and purification; set-up: species or system E. coli BL21 (DE3); conditions: per L culture
Method: Protein expression and purification. The plasmid-bearing E. coli BL21(DE3) cells were cultured in 1 L of LB-rich media (10 g/L tryptone, 5 g/L yeast extract and 10 g/L NaCl) supplemented with ampicillin (100 μg/mL). Expression of the target protein was achieved by inducing the E. coli culture with 0.1 mM of isopropyl-1-thio-β-D-galactopyranoside (IPTG) when OD600 nm reached 0.8-1.0, followed by incubating at 20° C. for 20 h with shaking at 250 rpm in a C25KC incubator shaker (New Brunswick Scientific, Edison, N.J.). Histidine-tagged target proteins were purified from cell lysate. To obtain the cell lysate, cell pellet harvested by centrifugation at 2,795 g for 50 min was resuspended (25 mL/L cell culture) in lysis buffer (Tris-HCl, 100 mM, pH 8.0 with 0.1% Triton X-100). Sonication protocol was 2 s (sonication)/3 s (rest) for a total of 6 min on ice. Lysed cells were centrifuged at 5,000 g for 50 min and the supernatant (lysate) was collected. Purification of histidine-tagged proteins from the lysate was achieved using a Ni′-resin column. The column was pre-equilibrated with 10 column volumes of binding buffer (5 mM imidazole, 0.5 M NaCl, 50 mM Tris-HCl, pH 7.5). The lysate was then loaded, and the column was washed with 10 column volumes of binding buffer and 10 column volumes of washing buffer (16 mM imidazole, 0.5 M NaCl, 50 mM Tris-HCl, pH 7.5). The target protein was eluted with Tris-HCl buffer (50 mM, pH 7.5) containing imidazole (200 mM) and NaCl (0.5 M). The fractions containing the purified enzymes were collected, and stored at 4° C.

[4] = Effect of UDP concentration on reverse glycosylation activity; type: biochemical; conditions: O6 1 mM, enzyme 15 μM
Method: Reactions were stopped by heating reaction mixtures at 70° C. for 10 min followed by incubation on ice for 30 min, and centrifugation at 11,337 g for 15 min. Supernatants were analyzed using an Infinity 1290 II HPLC equipped with 1260 Infinity II Diode Array Detector WR (monitored at 254 nm, Agilent Technologies, CA). An AdvanceBio Glycan Mapping column (1.8 μm particle, 2.1×150 mm, Agilent Technologies, CA) was used with a gradient (13 min) of 0.5 mL/min for 90% to 70% acetonitrile and a solution of water with 0.1% TFA for analysis.

[5] = Relative activity comparison with acceptor GlcAβProNHFmoc (O1) and UDP-GlcNAc; type: biochemical; conditions: for GlcNAcα1-4GlcAβProNHFmoc (%): percentage conversion, 30 min, HPLC
Method: (§1) Reactions were stopped by heating reaction mixtures at 70° C. for 10 min, followed by incubation on ice for 30 min and centrifugation at 11,337 g for 15 min.

[6] = Relative activity comparison with acceptor GlcNAcαProNHFmoc and UDP-GlcA; type: biochemical; conditions: enzyme 1.5 mg/mL; percentage conversion, 30 min, HPLC
Method: as §1

B1: His6-PmHS2: N-terminal His6-tagged wild-type Pasteurella multocida heparosan synthase 2 (SEQ ID NO:6) (protein)
chain: MGSSHHHHHHSSGLVPRGSHMKGKKEMTQKQMTKNPPQHEKENELNTFQNKIDSLKTTLNKDIISQQTLLAKQDSKHPLSESLENENKLLLKQLQLVLQEFEKIYTYNQALEAKLEKDKQTTSITDLYNEVAKSDLGLVKETNSANPLVSIIMTSHNTAQFIEASINSLLLQTYKNIEIIIVDDDSSDNTFEIASRIANTTSKVRVFRLNSNLGTYFAKNTGILKSKGDIIFFQDSDDVCHHERIERCVNILLANKETIAVRCAYSRLAPETQHIIKVNNMDYRLGFITLGMHRKVFQEIGFFNCTTKGSDDEFFHRIAKYYGKEKIKNLLLPLYYNTMRENSLFTDMVEWIDNHNIIQKMSDTRQHYATLFQAMHNETASHDFKNLFQFPRIYDALPVPQEMSKLSNPKIPVYINICSIPSRIAQLQRIIGILKNQCDHFHIYLDGYVEIPDFIKNLGNKATVVHCKDKDNSIRDNGKFILLEELIEKNQDGYYITCDDDIIYPSDYINTMIKKLNEYDDKAVIGLHGILFPSRMTKYFSADRLVYSFYKPLEKDKAVNVLGTGTVSFRVSLFNQFSLSDFTHSGMADIYFSLLCKKNNILQICISRPANWLTEDNRDSETLYHQYRDNDEQQTQLIMENGPWGYSSIYPLVKNHPKFTDLIPCLPFYFL
modifications: N-terminal His6 tag
In the case of B1, the pI [1] is reported as 6.83, the behaviour during dialysis [2] is reported as “precipitated easily during dialysis” and the expression level [3] is reported as 17 to 20 mg/L. For the same molecule, the “O6 (%)” value ([4]; UDP 0 (nM)) was 100%, the “O1 (%)” value ([4]; UDP 1 (nM)) was 3.3% and the “O2 (%)” value ([4]; UDP 1 (nM)) was 2.7%. For the same molecule, the “O3 (%)” value ([4]; UDP 1 (nM)) was 1.4%, the “O4 (%)” value ([4]; UDP 1 (nM)) was 9.6% and the “O5 (%)” value ([4]; UDP 1 (nM)) was 3.0%. For the same molecule, the “O6 (%)” value ([4]; UDP 1 (nM)) was 64.2%, the “O8 (%)” value ([4]; UDP 1 (nM)) was 13.5% and the “O10 (%)” value ([4]; UDP 1 (nM)) was 1.9%. For the same molecule, the “O1 (%)” value ([4]; UDP 5 (nM)) was 3.9%, the “O2 (%)” value ([4]; UDP 5 (nM)) was 5.5% and the “O3 (%)” value ([4]; UDP 5 (nM)) was 1.1%. The “O4 (%)” value ([4]; UDP 5 (nM)) was 8.8%, the “O5 (%)” value ([4]; UDP 5 (nM)) was 4.8% and the “O6 (%)” value ([4]; UDP 5 (nM)) was 52.3%. For the same molecule, the “O7 (%)” value ([4]; UDP 5 (nM)) was 0.4%, the “O8 (%)” value ([4]; UDP 5 (nM)) was 16.0% and the “O10 (%)” value ([4]; UDP 5 (nM)) was 5.7%. The “O12 (%)” value ([4]; UDP 5 (nM)) was 0.7%, the “O1 (%)” value ([4]; UDP 10 (nM)) was 3.1% and the “O2 (%)” value ([4]; UDP 10 (nM)) was 9.0%. For the same molecule, the “O3 (%)” value ([4]; UDP 10 (nM)) was 0.6%, the “O4 (%)” value ([4]; UDP 10 (nM)) was 17.7% and the “O5 (%)” value ([4]; UDP 10 (nM)) was 9.1%. The “O6 (%)” value ([4]; UDP 10 (nM)) was 36.2%, the “O7 (%)” value ([4]; UDP 10 (nM)) was 1.1% and the “O8 (%)” value ([4]; UDP 10 (nM)) was 16.3%. For the same molecule, the “O9 (%)” value ([4]; UDP 10 (nM)) was 0.4%, the “O10 (%)” value ([4]; UDP 10 (nM)) was 4.6% and the “O12 (%)” value ([4]; UDP 10 (nM)) was 1.3%. The “efficiency of GlcAβProNHFmoc (O1) over GlcNAcαProNHFmoc as substrate in disaccharide production” value [5] was 157 fold, the “GlcNAcα1-4GlcAβProNHFmoc (%)” value ([5]; enzyme 0.06 mg/mL) was 64.5 ± 1.0% and the “GlcNAcα1-4GlcAβProNHFmoc (%)” value ([5]; enzyme 1.5 mg/mL) was 100%. The “GlcAβ1-4GlcNAcαProNHFmoc (%)” value [6] was 10.3 ± 0.3%.
